This data set is described as follows: self-splicing fitness, log relative to wild type (ln ratio); higher = more splicing; Tetrahymena group I intron in knt gene, E. coli kanamycin selection, DiMSum; sequences stand for … in CUCUCU…GGAGGGAAAAGUUAUCAGGCAUGCACCUGGUAGCUAGUCUUUAAACCAAUAGAUUGCAUCGGUUUAAAAGGCAAGACCGUCAAAUUGCGGGAAAGGGGUCAACAGCCGUUCAGUACCAAGUCUCAGGGGAAACUUUGAGAUGGCCUUGCAAAGGGUAUGGUAAUAAGCUGACGGACAUGGUCCUAACCACGCAGCCAAGUCCUAAGUCAACAGAUCUUCUGUUGAUAUGGAUGCAGUUCACAGACUAAAUGUCGGUCGGGGAAGAUGUAUUCUUCUCAUAAGAUAUAGUCGGACCUCUCCUUAAUGGGAGCUAGCGGAUGAAGUGAUGCAACACUGGAGCCGCUGGGAACUAAUUUGUAUGCGAAAGUAUAUUGAUUAGUUUUGGAGUACUCGUGGUCG
An outline of the steps:
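The eight P1ex-region nucleotides of an intron in the knt kanamycin-resistance gene on pET-22b(+) were all randomised and the library put into E. coli BL21(DE3). Six replicate transformations were grown overnight at 37°C or 30°C on LB agar with or without 25 μg/mL kanamycin, together with 100 μg/mL carbenicillin, 50 μM IPTG and 0.2% rhamnose. Colonies were pooled and amplicon-sequenced on an Illumina HiSeq 2500. Fitness from DiMSum is the error-weighted combination of wild-type-normalised replicate fold changes, kanamycin over none.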

± gives the uncertainty stated by the source.

Take AUCAAGCAAUAUUACGGAGU: the “self-splicing fitness (ln)” value (30 °C) is -2.18 ± 0.095 and the “self-splicing fitness (ln)” value (37 °C) is -0.783 ± 0.11. The corresponding values for UAAGAGCAAUAUUACGACAG are -3.17 ± 0.25 and -2.34 ± 0.23. For AAAAAGCAAUAUUACGCAAA, in that order: -1.15 ± 0.13 and -1.43 ± 0.17. For the sequence GACCAGCAAUAUUACGUCGG, the “self-splicing fitness (ln)” value reads like this: (30 °C) -2.79 ± 0.21; (37 °C) -1.98 ± 0.28. Consider ACGAAGCAAUAUUACGCCUC, for which the “self-splicing fitness (ln)” value was -2.93 ± 0.31 (30 °C) and -1.77 ± 0.47 (37 °C). In the case of GACAAGCAAUAUUACGGUUA, the “self-splicing fitness (ln)” value by setting is: (30 °C) -0.281 ± 0.079; (37 °C) -0.186 ± 0.077.

For AGGCAGCAAUAUUACGGAAU, the “self-splicing fitness (ln)” value runs as follows: (30 °C) -1.67 ± 0.057; (37 °C) -0.844 ± 0.084. For GAGCAGCAAUAUUACGGGGU, in that order: -2.96 ± 0.16 and -3.18 ± 0.17. Take CUGCAGCAAUAUUACGUAAA: the “self-splicing fitness (ln)” value (30 °C) is -3.28 ± 0.14 and the “self-splicing fitness (ln)” value (37 °C) is -1.19 ± 0.14. For GAACAGCAAUAUUACGGUGC, the “self-splicing fitness (ln)” value by setting is: (30 °C) -1.38 ± 0.074; (37 °C) -1.22 ± 0.086. The corresponding values for ACAGAGCAAUAUUACGGAGG are -3.8 ± 0.33 and -1.39 ± 0.24. For AUUUAGCAAUAUUACGCCCU, in that order: 0.0873 ± 0.082 and 0.37 ± 0.11.

As for CGUAAGCAAUAUUACGCCGU, the “self-splicing fitness (ln)” value is -3.89 ± 0.26 (30 °C) and -2.65 ± 0.21 (37 °C). For UGUUAGCAAUAUUACGGAGG, for the setting “30 °C”, the “self-splicing fitness (ln)” value is -2.3 ± 0.45. For the sequence AUUAAGCAAUAUUACGAGCA, the “self-splicing fitness (ln)” value reads like this: (30 °C) -0.83 ± 0.15; (37 °C) -0.726 ± 0.18. Turning to GACCAGCAAUAUUACGCACA, the “self-splicing fitness (ln)” value (30 °C) was -0.51 ± 0.05 and the “self-splicing fitness (ln)” value (37 °C) was -0.0966 ± 0.07.

In the case of CAGCAGCAAUAUUACGGAUU, the “self-splicing fitness (ln)” value runs as follows: (30 °C) -3 ± 0.14; (37 °C) -1.64 ± 0.13. Consider GUAAAGCAAUAUUACGGACA, for which the “self-splicing fitness (ln)” value is, setting by setting: (30 °C) -0.403 ± 0.085; (37 °C) 0.623 ± 0.12. For AUUAAGCAAUAUUACGUGCC, in that order: -0.626 ± 0.096 and -1.07 ± 0.14. With UCCCAGCAAUAUUACGAAUA, the “self-splicing fitness (ln)” value is, setting by setting: (30 °C) -2.11 ± 0.1; (37 °C) -1.42 ± 0.11. The corresponding values for CAGCAGCAAUAUUACGGCCG are -0.67 ± 0.08 and -0.622 ± 0.12.

Take UCCAAGCAAUAUUACGUCAU: the “self-splicing fitness (ln)” value runs as follows: (30 °C) -3.09 ± 0.14; (37 °C) -1.39 ± 0.11.

For AUGCAGCAAUAUUACGGAAA, the “self-splicing fitness (ln)” value (30 °C) is -1.86 ± 0.23 and the “self-splicing fitness (ln)” value (37 °C) was -2.17 ± 0.28. As to AUAAAGCAAUAUUACGACGA, the “self-splicing fitness (ln)” value by setting is: (30 °C) -0.00868 ± 0.096; (37 °C) 0.701 ± 0.12. For UAGUAGCAAUAUUACGGUGG, in that order: -3.44 ± 0.27 and -2.09 ± 0.2. AGGAAGCAAUAUUACGUGGC: where the note is “37 °C”, the “self-splicing fitness (ln)” value is -3.3 ± 0.43.

For ACCGAGCAAUAUUACGUGUC, the “self-splicing fitness (ln)” value was -3.24 ± 0.2 (30 °C) and -3.04 ± 0.27 (37 °C). Consider CUUUAGCAAUAUUACGAUGG, for which the “self-splicing fitness (ln)” value (30 °C) was -1.01 ± 0.1 and the “self-splicing fitness (ln)” value (37 °C) was -0.752 ± 0.13. For AACCAGCAAUAUUACGUACU, in that order: 0.015 ± 0.053 and 0.248 ± 0.066. As for UGAGAGCAAUAUUACGCCCG, the “self-splicing fitness (ln)” value was -3.12 ± 0.3 (30 °C) and -0.718 ± 0.21 (37 °C).

Take CCAAAGCAAUAUUACGGGCG: the “self-splicing fitness (ln)” value is -1.31 ± 0.065 (30 °C) and -0.301 ± 0.094 (37 °C). As to CUGCAGCAAUAUUACGGGGA, the “self-splicing fitness (ln)” value was -2.72 ± 0.19 (30 °C) and -2.22 ± 0.18 (37 °C). As for CGGAAGCAAUAUUACGUUCG, the “self-splicing fitness (ln)” value reads like this: (30 °C) -2.69 ± 0.18; (37 °C) -2.29 ± 0.34. Consider UUUAAGCAAUAUUACGUUCA, for which the “self-splicing fitness (ln)” value (30 °C) is -1.08 ± 0.11 and the “self-splicing fitness (ln)” value (37 °C) was -0.403 ± 0.12. With AGUGAGCAAUAUUACGAAAA, the “self-splicing fitness (ln)” value runs as follows: (30 °C) -3.16 ± 0.16; (37 °C) -2.23 ± 0.23. For CGUCAGCAAUAUUACGCUUA, in that order: -2.18 ± 0.23 and -1.14 ± 0.17. For UGCCAGCAAUAUUACGCACG, in that order: -1.48 ± 0.2 and -0.233 ± 0.14.

With GGUAAGCAAUAUUACGGCAC, the “self-splicing fitness (ln)” value is -0.762 ± 0.096 (30 °C) and -0.531 ± 0.15 (37 °C).
